Experimental data reported in patent US7662400.

Key:
[1] = target: protease-activated receptor 2 (PAR-2) on human eosinophils / BEAS-2B airway epithelial cells (UniProt P55085)
[2] = test system: T1, fluorescent quenched PAR-2 peptide substrate Abz-SKGRSLIGK(Dnp)D
T1 sequence: SKGRSLIGK

Sequence of protease-activated receptor 2 (PAR-2) on human eosinophils / BEAS-2B airway epithelial cells (P55085 whole entry, looked up): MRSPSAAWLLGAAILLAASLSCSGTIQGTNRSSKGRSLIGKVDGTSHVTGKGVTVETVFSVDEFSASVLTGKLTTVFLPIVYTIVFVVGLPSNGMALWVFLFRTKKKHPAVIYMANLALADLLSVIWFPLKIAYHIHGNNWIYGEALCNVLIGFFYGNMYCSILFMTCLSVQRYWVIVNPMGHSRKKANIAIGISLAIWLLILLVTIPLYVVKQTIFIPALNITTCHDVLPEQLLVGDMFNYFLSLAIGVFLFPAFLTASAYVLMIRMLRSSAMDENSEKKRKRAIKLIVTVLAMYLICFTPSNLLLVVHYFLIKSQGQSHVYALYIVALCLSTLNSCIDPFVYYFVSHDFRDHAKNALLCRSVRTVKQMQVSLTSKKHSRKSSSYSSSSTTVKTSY

Row | Substance | deglycosylation and downregulation of PAR-2 in eosinophils (Western blot) [1] | in vitro assay for PAR-2 cleavage and activation (fluorescent quenched peptide substrate) [2]
1 | Aspergillus xylanase | The 41 kDa and 70 kDa PAR-2 molecules were deglycosylated by xylanase temporarily | 
2 | trypsin |  | trypsin, as positive control, clearly cleaved this peptide
